# Measurements as given in patent US8147838B2, “Peptide” (priority 2005, dated 2012).
# How the values were obtained:
# Settings in all cases: percent of positive control peptide binding; peptide at 1.11×10^−5M
# [1] = target: MHC class I allele A*0101 (A1) (Homo sapiens, UniProt P04439, A114D/A174V/A182V/D101N/D185E/E176A/E190D/L180R/Q94H/R68K/S129P/T187R/V100A/V91M/W191G); experiment: iTopia peptide binding assay, A*0101
# Description: (§1) The 9 mers were tested for Peptide Binding, Off Rate and Affinity using iTopia Epitope Discovery System in accordance with the manufacturer's instructions. Briefly, 96 well microtitre plates coated with MHC molecules representing different MHC alleles are used to identify candidate peptides. […] Determinations are performed in duplicate using an ELISA plate reader and included allele specific positive controls.
# (§2) i) Peptide Binding—This assay measures the ability of individual peptides to bind to the MHC molecules under standardized optimal binding conditions. The assay is performed for all the test peptides across the selected MHC alleles. The test peptides identified as “binders” are characterized further in terms of affinity and dissociation experiments.
# (§3) Following a period of binding under optimal conditions, excess antibody is removed and a measurement of total fluorescence taken (D).
# (§4) The binding of the test peptides to the MHC molecules was performed at 1.11×10^−5M of peptide under optimal, standardised test conditions. A control peptide was run in parallel on the same plate and at the same concentration as the test peptides.
# (§5) The level of binding is expressed as a percent of positive control peptide binding for each allele.
# [2] = target: MHC class I allele A*0201 (A2) (Homo sapiens, UniProt P04439, D140Y/D185E/D98H/E176V/E277Q/G131W/G231S/I119V/I121R/I166T/I218V/L300P/L318F/N151K/N90K/P208A/P217A/Q86G/Q94H/R138H/R169H/T345S); experiment: iTopia peptide binding assay, A*0201
# Description: as §1, §2, §3, §4, §5
# [3] = target: MHC class I allele A*0301 (A3) (Homo sapiens, UniProt P04439); experiment: iTopia peptide binding assay, A*0301
# Description: as §1, §2, §3, §4, §5
# [4] = target: MHC class I allele B*0702 (B7) (Homo sapiens, UniProt P01889); experiment: iTopia peptide binding assay, B*0702
# Description: as §1, §2, §3, §4, §5
Sequence,"Peptide binding, MHC Class I Molecule A*0101 [1]","Peptide binding, MHC Class I Molecule A*0201 [2]","Peptide binding, MHC Class I Molecule A*0301 [3]","Peptide binding, MHC Class I Molecule B*0702 [4]"
AALLAGRAL [Peptide 101],1 % of control,38 % of control,0 % of control,59 % of control
AALNLSGSR [Peptide 61],3 % of control,6 % of control,13 % of control,3 % of control
ACRDHMEGY [Peptide 196],3 % of control,8 % of control,4 % of control,7 % of control
ADMVTWLKE [Peptide 152],0 % of control,6 % of control,4 % of control,8 % of control
AELQGLPHI [Peptide 140],0 % of control,9 % of control,1 % of control,0 % of control
AFEHLPSLR [Peptide 69],1 % of control,11 % of control,11 % of control,0 % of control
AFSGSNASV [Peptide 81],2 % of control,55 % of control,2 % of control,14 % of control
AGAFEHLPS [Peptide 68],6 % of control,10 % of control,3 % of control,7 % of control
AGRALQGLR [Peptide 103],0 % of control,2 % of control,2 % of control,1 % of control
ASAVSAQPP [Peptide 25],2 % of control,5 % of control,0 % of control,0 % of control
CAYPEKMRN [Peptide 162],0 % of control,11 % of control,4 % of control,3 % of control
CSRGPAAGD [Peptide 3],0 % of control,3 % of control,5 % of control,3 % of control
DCDPILPPS [Peptide 172],0 % of control,0 % of control,3 % of control,0 % of control
DCHMADMVT [Peptide 150],0 % of control,7 % of control,3 % of control,5 % of control
DEVRAGAFE [Peptide 66],6 % of control,9 % of control,7 % of control,12 % of control
DLDCDPILP [Peptide 171],0 % of control,0 % of control,4 % of control,3 % of control
DNALKVLHN [Peptide 134],1 % of control,5 % of control,0 % of control,0 % of control
DPILPPSLQ [Peptide 173],0 % of control,7 % of control,4 % of control,0 % of control
DRLTCAYPE [Peptide 160],0 % of control,6 % of control,5 % of control,3 % of control
ECSEAARTV [Peptide 34],2 % of control,4 % of control,0 % of control,0 % of control
EDERQNRSF [Peptide 94],0 % of control,2 % of control,4 % of control,4 % of control
EGYHYRYEI [Peptide 199],0 % of control,9 % of control,0 % of control,4 % of control
ERQNRSFEG [Peptide 95],0 % of control,1 % of control,1 % of control,1 % of control
ESLHLEDNA [Peptide 131],2 % of control,8 % of control,0 % of control,0 % of control
ETEVVQGKD [Peptide 156],0 % of control,1 % of control,3 % of control,1 % of control
GAIFLLVLY [Peptide 184],0 % of control,5 % of control,5 % of control,0 % of control
GKDRLTCAY [Peptide 159],3 % of control,6 % of control,6 % of control,4 % of control
HLESLHLED [Peptide 130],4 % of control,3 % of control,2 % of control,2 % of control
HNPLADLSP [Peptide 76],5 % of control,7 % of control,3 % of control,5 % of control
IFLLVLYLN [Peptide 185],0 % of control,8 % of control,0 % of control,2 % of control
